This passage reports stoichiometry N results from PMC8649396.

A word on the stoichiometry N: it is the number of molecules, sites or subunits per partner or assembly.

Test [1] addresses Rieske oxygenase from Cupriavidus metallidurans CH34 (RO_CH34) (Cupriavidus metallidurans CH34). The experiment in a line: crystal structure.
The target is the same in test [2]. The experiment in a line: SEC. A general note: Size exclusion chromatography separates by hydrodynamic size, large species first.
The target of test [3] is Phthalate dioxygenase from Comamonas testosteroni KF1 (PDOKF1), as crystallised (Comamonas testosteroni KF1). The test can be described thus: crystal structure.
The target in test [4] is His-tagged phthalate dioxygenase from Comamonas testosteroni KF1 (Ht-PDOKF1) (Comamonas testosteroni KF1). The test can be described thus: SEC.

For “Rieske oxygenase from Cupriavidus metallidurans CH34 (RO_CH34) (enzyme)”, the stoichiometry N in test [1] and in test [2] was 3 each time.
On to “Phthalate dioxygenase from Comamonas testosteroni KF1 (PDOKF1), as crystallised (enzyme)”, for which the stoichiometry N in test [3] amounted to 6.
Substance “His-tagged phthalate dioxygenase from Comamonas testosteroni KF1 (Ht-PDOKF1) (enzyme)” returned a stoichiometry N in test [4] of 6.
